Test results reported in patent US20220162306A1.
“And” between values parts separate entries of the source, which are not always exact repeats. Equal values may be shown once.

Legend:
[1] = biological target: receptors on circulating human B cells (CD32B and CD79B, the two targets of PRV-3279)
[2] = biological target: CD32B (Fc gamma receptor IIb) (human) (UniProt P31994); assay: cell-based or functional assay
[3] = biological target: receptors on circulating human B cells (CD32B and CD79B, the two targets of PRV-3279); assay: receptor occupancy on circulating B cells of dosed healthy subjects (FIG. 3B)

Chain of CD32B (Fc gamma receptor IIb) (human) (P31994 43-310): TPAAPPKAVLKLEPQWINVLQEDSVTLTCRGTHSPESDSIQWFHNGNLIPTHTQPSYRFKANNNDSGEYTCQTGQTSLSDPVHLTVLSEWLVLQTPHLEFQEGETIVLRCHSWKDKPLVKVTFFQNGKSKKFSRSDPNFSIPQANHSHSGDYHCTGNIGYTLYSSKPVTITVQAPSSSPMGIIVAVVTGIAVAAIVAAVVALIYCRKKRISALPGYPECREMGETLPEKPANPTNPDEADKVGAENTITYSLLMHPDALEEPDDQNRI

PRV-3279, a humanized CD32B×CD79B DART® protein (bispecific antibody)
percent of available CD19+ B cells bound [1]: > 85%
receptor occupancy [1]: > 50%
inhibition of anti-human IgM stimulated B-cell proliferation (3H-thymidine incorporation), 100 nM PRV-3279, B cells of SLE patients with active or inactive disease [2]: 60%
inhibition of anti-human IgM stimulated B-cell proliferation (3H-thymidine incorporation), 100 nM PRV-3279, B cells of normal healthy volunteers and SLE patients [2]: 60%
percent of receptors occupied [3]: 70% and 75%
